Target: T1, ScbR (Streptomyces coelicolor A3(2) M145) (UniProt Q7AKF1)
T1 sequence: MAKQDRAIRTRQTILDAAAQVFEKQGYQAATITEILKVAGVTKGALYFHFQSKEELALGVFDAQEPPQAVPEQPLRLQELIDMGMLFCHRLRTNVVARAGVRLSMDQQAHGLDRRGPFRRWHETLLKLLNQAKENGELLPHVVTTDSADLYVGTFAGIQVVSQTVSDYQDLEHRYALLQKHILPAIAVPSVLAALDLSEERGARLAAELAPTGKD
Assay: DNase I footprinting
Details: EMSA: 6-12 ng probe, ScbR 0.21-3.77 uM, ScbR2 0.207-4.15 uM; buffer, salt, pH and temperature not in material (as described in earlier work)

Sequence: CCCTCATGTCCGAACAGCTCGACACCGCCGTCGAAACAGACGGCAAGGGCGACCTCGCCACGTTGTTCAACGGTGGGGACACCTTCTCCCATTGAAAACCGGCGAGGAGGTTTGTTAATCCCATGTTCCCTGGACCGACCTGTTTCGAGATCGAGGAGGACAGTTGAGCGCCACTTCTGCCCCCGCACCCCAGCACGGCATGACCTGGCTGGGAGCCATCGTGGAGGACGGCTTCACGGAGACGTTGCAGGACGGGCTCAG (double strand) [sco6268 promoter footprint probe]
- binding: binds

— publication PMC4595836
